In paper PMC6929039:

Target: Concanavalin A (Con A) (UniProt P02866 164-281+30-148, internal_change)
Assay: particle flow cytometry; 10 nM Con A; binding buffer, salt, pH and temperature not given in the material (hemagglutination: 30 min preincubation at RT)

B1: ConA-3-1n (ssDNA)
DNA: GATCCCAGTCCGAAGTAATCGTTGCATCTGCACGACTGGTGAGCTTGAGTGGCAGAAGAACTTGTGCAAACGGCTATAGG
modifications: none
binding result: no binding
